Test results reported in patent US20090197801A1.

Biological target: recombinant erythropoietin receptor (EPOR-Fc)
Experiment: SPR; Epo 3 peptide ionically bound to the chip, soluble recombinant EPOR-Fc as analyte; three independent experiments

Chain of recombinant erythropoietin receptor (EPOR-Fc) (P19235 25-250): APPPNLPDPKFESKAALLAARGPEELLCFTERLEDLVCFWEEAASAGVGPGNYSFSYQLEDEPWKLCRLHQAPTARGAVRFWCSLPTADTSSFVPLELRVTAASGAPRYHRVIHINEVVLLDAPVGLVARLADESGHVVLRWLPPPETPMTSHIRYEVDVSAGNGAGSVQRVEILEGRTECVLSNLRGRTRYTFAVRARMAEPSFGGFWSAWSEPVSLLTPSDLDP

Kd: 4.48 nM
Binder: QLHVDKAVSGLRSLTTLLRA [Epo3 peptide (Epo-peptide 3)]
